# Data from the supplement of paper PMC7125110.
# ± gives the standard error. For some assays here: This sample holds only a part of the variants without activity.
# B1: glmS ribozyme (parent)
# chain: AUAAAAGCGCCAGAACUACAGAAAUGUAGUUGACGAGGAGGAGGUUUAUCGAAUUUUCGGCGGAUGCCUCCAAA
# Assays:
# Settings in all cases: with glucosamine-6-phosphate
# [1] = variants of: B1; assay: kcat; higher = faster cleavage; RNA array
# Procedure, shortened: (§1)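 Tiles of sequenced MiSeq chips were imaged over ~14 h at 37 °C. On them, barcoded ribozyme variants had been transcribed in situ by E. coli RNA polymerase and were tracked via a hybridised Cy3 probe while glucosamine-6-phosphate (40 μM to 10 mM) in HEPES/KCl/Mg(OAc)2 buffer flowed in. Per-tile medians, normalised to baseline and to non-cleaving reference variants, were fit to one- or two-exponential decays for kobs, and weighted Michaelis–Menten fits gave kcat and KM.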
# [2] = variants of: B1; assay: KM; higher = weaker cofactor use; RNA array
# Procedure, shortened: as §1
# [3] = variants of: B1; assay: self-cleavage kobs at 640 uM GlcN6P; higher = faster cleavage; RNA array
# Procedure, shortened: as §1
# [4] = variants of: B1; assay: self-cleavage kobs at 2500 uM GlcN6P; higher = faster cleavage; RNA array
# Procedure, shortened: as §1
# [5] = variants of: B1; assay: self-cleavage kobs at 10000 uM GlcN6P; higher = faster cleavage; RNA array
# Procedure, shortened: as §1
# [6] = variants of: B1; assay: self-cleavage kobs at 160 uM GlcN6P; higher = faster cleavage; RNA array
# Procedure, shortened: as §1
# [7] = variants of: B1; assay: self-cleavage kobs at 40 uM GlcN6P; higher = faster cleavage; RNA array
# Procedure, shortened: as §1
Variant,kcat [1] [s⁻¹],KM [2] [µM],self-cleavage kobs at 640 uM GlcN6P [3] [s⁻¹],self-cleavage kobs at 2500 uM GlcN6P [4] [s⁻¹],self-cleavage kobs at 10000 uM GlcN6P [5] [s⁻¹],self-cleavage kobs at 160 uM GlcN6P [6] [s⁻¹],self-cleavage kobs at 40 uM GlcN6P [7] [s⁻¹]
G9A C61U,0.000168 ± 1.3e-05,1390 ± 290,5.18e-05 ± 1.1e-05,0.000144 ± 5.4e-05,0.000146 ± 1.8e-05,,
C58A C70A,4.48e-05 ± 1.6e-05,,5.32e-05 ± 1.4e-05,6.58e-05 ± 1.4e-05,,3.09e-05 ± 1.1e-05,
G13U A42G U45A,0.00154 ± 0.00051,,0.000169 ± 6.2e-05,0.000951 ± 0.00031,0.00104 ± 0.00021,,
G29U G38C C58G C68A C71A,5.03e-05 ± 2.1e-05,,,8.03e-05 ± 4e-05,,,
A12C U46C,0.00298 ± 0.0008,1680 ± 590,0.000606 ± 0.00017,0.00273 ± 0.00089,0.0026 ± 0.00058,0.000265 ± 5.1e-05,7.98e-05 ± 1.5e-05
G41C G66C,1.55e-05 ± 2.4e-06,,< 1e-05,,,,< 1e-05
G29C U69C,0.000103 ± 2.8e-05,,0.000129 ± 2.2e-05,0.000164 ± 3e-05,6.68e-05 ± 1.6e-05,8.98e-05 ± 2.2e-05,
U47A G59A,8.22e-05 ± 1.1e-05,3740 ± 1100,,3.14e-05 ± 1.2e-05,6.07e-05 ± 1.8e-05,,< 1e-05
G13U C16U,0.00286 ± 0.00057,3430 ± 1000,0.0004 ± 6.9e-05,0.00139 ± 0.00026,0.0021 ± 0.0003,0.000115 ± 2.9e-05,4.83e-05 ± 1.1e-05
U55G C71A,0.00224 ± 0.00065,528 ± 220,0.00113 ± 0.00015,0.00315 ± 0.00085,,0.000541 ± 0.00013,0.000162 ± 2.2e-05
G44A U54C,0.00159 ± 0.00015,8260 ± 990,0.000114 ± 1.7e-05,0.000372 ± 6.7e-05,0.000869 ± 0.00017,,
C16A C50A,< 1e-05,,,,,,
A12G A14C,0.000175 ± 3.9e-06,2970 ± 160,3.2e-05 ± 7.2e-06,7.78e-05 ± 1.1e-05,0.000135 ± 1.1e-05,,
A15C C67G,0.0001315 ± 6.7e-07,1530 ± 22,3.9e-05 ± 1.4e-05,8.12e-05 ± 1.4e-05,0.000114 ± 1.8e-05,,
U45G U55A,0.00686 ± 0.00089,1800 ± 330,0.00187 ± 0.00028,0.00385 ± 0.00058,0.00606 ± 0.0012,0.000513 ± 7.7e-05,0.000186 ± 4e-05
G29U C67A U69A,7.55e-05 ± 1.2e-05,,5.78e-05 ± 2.8e-05,0.000106 ± 2.6e-05,6.88e-05 ± 1.3e-05,,
G9U C50G,2.48e-05 ± 1.1e-05,,,,,,
G38U U65A,< 1e-05,,,,,< 1e-05,

Variant,kcat [1] [s⁻¹],KM [2] [µM],self-cleavage kobs at 640 uM GlcN6P [3] [s⁻¹],self-cleavage kobs at 2500 uM GlcN6P [4] [s⁻¹],self-cleavage kobs at 10000 uM GlcN6P [5] [s⁻¹],self-cleavage kobs at 160 uM GlcN6P [6] [s⁻¹],self-cleavage kobs at 40 uM GlcN6P [7] [s⁻¹]
U47G A64G C70G,3.26e-05 ± 9.4e-06,,,,,,< 1e-05
G13U A36C G38U A39C,1.03e-05 ± 4.7e-06,,,,,,
A39C U57G,< 1e-05,,,,,< 1e-05,
C10U C67G U69G,1.67e-05 ± 3.6e-06,,,,,,
U45C U54A,0.00783 ± 0.0023,6680 ± 2400,0.00072 ± 0.00011,0.00255 ± 0.00053,0.00436 ± 0.001,0.000161 ± 3.3e-05,
G44U C71U,0.000114 ± 4.5e-05,,,9.61e-05 ± 1.4e-05,8.62e-05 ± 1.2e-05,,< 1e-05
A15U C16G,0.00121 ± 0.00041,2570 ± 1300,0.000169 ± 5.1e-05,0.000786 ± 0.0002,0.000952 ± 0.00022,8.8e-05 ± 1.9e-05,2.88e-05 ± 1.4e-05
G51U A52C,< 1e-05,,,< 1e-05,< 1e-05,,< 1e-05
C50U U57C,< 1e-05,,,,,< 1e-05,< 1e-05
U30C U54C,0.000253 ± 0.00011,,7.76e-05 ± 1.2e-05,9.4e-05 ± 2.7e-05,0.000271 ± 4.1e-05,4.17e-05 ± 1.8e-05,
U30C G40A,9.74e-05 ± 1.5e-05,3260 ± 1400,,4.56e-05 ± 1.3e-05,7.27e-05 ± 1.2e-05,,< 1e-05
A12U G40A,0.0133 ± 0.0024,1110 ± 310,0.0042 ± 0.001,0.00929 ± 0.0029,0.013 ± 0.0034,0.00156 ± 0.00048,0.000618 ± 0.00017
A48U U54G C70U,0.000549 ± 9.5e-05,1760 ± 550,0.000139 ± 2.9e-05,0.000369 ± 9.6e-05,0.000445 ± 0.00012,,
C11U,0.00338 ± 0.00074,1800 ± 450,0.000837 ± 8.1e-05,0.00508 ± 0.0016,0.00293 ± 9.8e-05,0.000216 ± 7.8e-06,8.01e-05 ± 1.4e-06
G7U C8G C50A,2.71e-05 ± 5.9e-06,,,,,,
G13C G66A,6.45e-05 ± 6.3e-06,1630 ± 600,,4.1e-05 ± 1.2e-05,5.46e-05 ± 1.2e-05,,
A14U C50U,4.31e-05 ± 1.5e-06,1180 ± 170,,3.01e-05 ± 1.1e-05,3.81e-05 ± 1.1e-05,,
